Results reported in patent US20240409645A1 (DUALYX, published 2024).

T1: human IL-2 receptor (IL-2Rα/IL-2Rβ/γc) (human, UniProt P01589 22-272; P14784 27-551; P31785 23-369)
T1 sequence 1: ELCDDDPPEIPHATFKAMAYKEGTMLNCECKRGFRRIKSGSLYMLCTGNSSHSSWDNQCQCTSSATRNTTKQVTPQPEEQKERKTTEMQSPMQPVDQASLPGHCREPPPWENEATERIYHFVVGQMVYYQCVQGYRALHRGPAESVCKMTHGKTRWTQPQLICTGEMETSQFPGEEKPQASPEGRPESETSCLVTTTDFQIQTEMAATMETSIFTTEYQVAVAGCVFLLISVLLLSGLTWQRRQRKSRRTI
T1 sequence 2: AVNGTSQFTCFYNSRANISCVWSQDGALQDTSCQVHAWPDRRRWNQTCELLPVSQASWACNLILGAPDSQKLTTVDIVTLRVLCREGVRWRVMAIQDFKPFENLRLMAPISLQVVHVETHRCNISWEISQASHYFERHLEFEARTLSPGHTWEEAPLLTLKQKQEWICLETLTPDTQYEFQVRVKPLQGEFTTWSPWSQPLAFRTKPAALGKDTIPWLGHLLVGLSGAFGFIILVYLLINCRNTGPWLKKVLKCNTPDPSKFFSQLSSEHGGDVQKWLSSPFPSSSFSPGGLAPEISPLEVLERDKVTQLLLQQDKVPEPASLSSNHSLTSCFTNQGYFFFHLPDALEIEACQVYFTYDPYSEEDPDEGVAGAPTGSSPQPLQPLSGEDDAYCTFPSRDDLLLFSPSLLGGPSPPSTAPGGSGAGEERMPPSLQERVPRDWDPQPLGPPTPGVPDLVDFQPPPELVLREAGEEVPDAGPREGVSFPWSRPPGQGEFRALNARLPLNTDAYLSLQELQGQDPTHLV
T1 sequence 3: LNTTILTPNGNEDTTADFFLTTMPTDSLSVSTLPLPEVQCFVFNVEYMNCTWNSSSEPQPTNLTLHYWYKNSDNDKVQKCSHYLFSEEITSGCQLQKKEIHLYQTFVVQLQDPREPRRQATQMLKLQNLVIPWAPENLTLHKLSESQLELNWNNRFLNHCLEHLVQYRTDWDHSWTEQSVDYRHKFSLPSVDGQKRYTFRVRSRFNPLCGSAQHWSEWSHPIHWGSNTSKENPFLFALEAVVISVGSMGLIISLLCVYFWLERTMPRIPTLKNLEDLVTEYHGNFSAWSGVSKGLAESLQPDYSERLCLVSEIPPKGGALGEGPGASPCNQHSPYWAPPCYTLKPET

B1: DC00059 (other)
chain 1: QVQLVESGGGLVQPGGSLRLSCATSGFTFRNNFMSWVRQAPGKGLEWVSTISYGGESTTYAESVKGRFTISRDNAKNTLYLQMNNLKPEDTAVYYCAKATSYDSIRSGSRGQGTQVTVSSGGGGSGGGGSGGGGSEVQLVESGGGLVQTGGSLRLSCAASGGTFSRDAMAWFRQVPGKEREFVALISWSGATTNYADSVKGRFAISRDNGKNTVYLQMNRLKPADTAIYYCAADRRPMGSRSYFEPTEYDDWGQGTQVTVSSGGGGSGGGGSGGGGSDKTHTCPPCPAPEAAGGPSVFLFPPKPKDTLMISRTPEVTCVVVDVSHEDPEVKFNWYVDGVEVHNAKTKPREEQYNSTYRVVSVLTVLHQDWLNGKEYKCKVSNKALGAPIEKTISKAKGQPREPQVYTLPPSRDELTKNQVSLTCLVKGFYPSDIAVEWESNGQPENNYKTTPPVLDSDGSFLLYSKLTVDKSRWQQGNVFSCSVMHEALHNHYTQKSLSLSPGK
chain 2: QVQLVESGGGLVQAGGSLTLSCAAPGRTFGTDVVGWFRQAPGKEREFVASISRSGDGIYYDDSVKGRFTISRNNAWNTVNLQMNSLKVEDTAVYYCAAGDGWSTYDYWGQGTQVTVSSGGGGSGGGGSGGGGSQVQLVESGGGLVQPGGSLRLSCATSGFTFRNNFMSWVRQAPGKGLEWVSTISYGGESTTYAESVKGRFTISRDNAKNTLYLQMNNLKPEDTAVYYCAKATSYDSIRSGSRGQGTQVTVSSGGGGSGGGGSGGGGSEVQLVESGGGLVQTGGSLRLSCAASGGTFSRDAMAWFRQVPGKEREFVALISWSGATTNYADSVKGRFAISRDNGKNTVYLQMNRLKPADTAIYYCAADRRPMGSRSYFEPTEYDDWGQGTQVTVSSGGGGSGGGGSGGGGSDKTHTCPPCPAPEAAGGPSVFLFPPKPKDTLMISRTPEVTCVVVDVSHEDPEVKFNWYVDGVEVHNAKTKPREEQYNSTYRVVSVLTVLHQDWLNGKEYKCKVSNKALGAPIEKTISKAKGQPREPQVYTLPPSRDELTKNQVSLTCLVKGFYPSDIAVEWESNGQPENNYKTTPPVLDSDGSFFLYSRLTVDKSRWQQGNVFSCSVMHEALHNHYTQKSLSLSPGK
B2: DC00061 (other)
chain 1: B1 chain 1
chain 2: QVQLVESGGGLVQAGGSLTLSCAAPGRTFGTDVVGWFRQAPGKEREFVASISRSGDGIYYDDSVKGRFTISRNNAWNTVNLQMNSLKVEDTAVYYCAAGDGWSTYDYWGQGTQVTVSSGGGGSGGGGSGGGGSQVQLVESGGGLVQPGGSLRLSCATSGFTFRNNFMSWVRQAPGKGLEWVSTISYGGESTTYAESVKGRFTISRDNAKNTLYLQMNNLKPEDTAVYYCAKATSYDSIRSGSRGQGTQVTVSSDKTHTCPPCPAPEAAGGPSVFLFPPKPKDTLMISRTPEVTCVVVDVSHEDPEVKFNWYVDGVEVHNAKTKPREEQYNSTYRVVSVLTVLHQDWLNGKEYKCKVSNKALGAPIEKTISKAKGQPREPQVYTLPPSRDELTKNQVSLTCLVKGFYPSDIAVEWESNGQPENNYKTTPPVLDSDGSFFLYSRLTVDKSRWQQGNVFSCSVMHEALHNHYTQKSLSLSPGK
B3: DC00062 (other)
chain 1: EVQLVESGGGLVQTGGSLRLSCAASGGTFSRDAMAWFRQVPGKEREFVALISWSGATTNYADSVKGRFAISRDNGKNTVYLQMNRLKPADTAIYYCAADRRPMGSRSYFEPTEYDDWGQGTQVTVSSGGGGSGGGGSGGGGSQVQLVESGGGLVQPGGSLRLSCATSGFTFRNNFMSWVRQAPGKGLEWVSTISYGGESTTYAESVKGRFTISRDNAKNTLYLQMNNLKPEDTAVYYCAKATSYDSIRSGSRGQGTQVTVSSDKTHTCPPCPAPEAAGGPSVFLFPPKPKDTLMISRTPEVTCVVVDVSHEDPEVKFNWYVDGVEVHNAKTKPREEQYNSTYRVVSVLTVLHQDWLNGKEYKCKVSNKALGAPIEKTISKAKGQPREPQVYTLPPSRDELTKNQVSLTCLVKGFYPSDIAVEWESNGQPENNYKTTPPVLDSDGSFLLYSKLTVDKSRWQQGNVFSCSVMHEALHNHYTQKSLSLSPGK
chain 2: EVQLVESGGGLVQTGGSLRLSCAASGGTFSRDAMAWFRQVPGKEREFVALISWSGATTNYADSVKGRFAISRDNGKNTVYLQMNRLKPADTAIYYCAADRRPMGSRSYFEPTEYDDWGQGTQVTVSSGGGGSGGGGSGGGGSQVQLVESGGGLVQPGGSLRLSCATSGFTFRNNFMSWVRQAPGKGLEWVSTISYGGESTTYAESVKGRFTISRDNAKNTLYLQMNNLKPEDTAVYYCAKATSYDSIRSGSRGQGTQVTVSSGGGGSGGGGSGGGGSQVQLVESGGGLVQAGGSLTLSCAAPGRTFGTDVVGWFRQAPGKEREFVASISRSGDGIYYDDSVKGRFTISRNNAWNTVNLQMNSLKVEDTAVYYCAAGDGWSTYDYWGQGTQVTVSSGGGGSGGGGSGGGGSDKTHTCPPCPAPEAAGGPSVFLFPPKPKDTLMISRTPEVTCVVVDVSHEDPEVKFNWYVDGVEVHNAKTKPREEQYNSTYRVVSVLTVLHQDWLNGKEYKCKVSNKALGAPIEKTISKAKGQPREPQVYTLPPSRDELTKNQVSLTCLVKGFYPSDIAVEWESNGQPENNYKTTPPVLDSDGSFFLYSRLTVDKSRWQQGNVFSCSVMHEALHNHYTQKSLSLSPGK
B4: DC00064 (other)
chain 1: B3 chain 1
chain 2: QVQLVESGGGLVQPGGSLRLSCATSGFTFRNNFMSWVRQAPGKGLEWVSTISYGGESTTYAESVKGRFTISRDNAKNTLYLQMNNLKPEDTAVYYCAKATSYDSIRSGSRGQGTQVTVSSGGGGSGGGGSGGGGSQVQLVESGGGLVQAGGSLTLSCAAPGRTFGTDVVGWFRQAPGKEREFVASISRSGDGIYYDDSVKGRFTISRNNAWNTVNLQMNSLKVEDTAVYYCAAGDGWSTYDYWGQGTQVTVSSGGGGSGGGGSGGGGSEVQLVESGGGLVQTGGSLRLSCAASGGTFSRDAMAWFRQVPGKEREFVALISWSGATTNYADSVKGRFAISRDNGKNTVYLQMNRLKPADTAIYYCAADRRPMGSRSYFEPTEYDDWGQGTQVTVSSGGGGSGGGGSGGGGSDKTHTCPPCPAPEAAGGPSVFLFPPKPKDTLMISRTPEVTCVVVDVSHEDPEVKFNWYVDGVEVHNAKTKPREEQYNSTYRVVSVLTVLHQDWLNGKEYKCKVSNKALGAPIEKTISKAKGQPREPQVYTLPPSRDELTKNQVSLTCLVKGFYPSDIAVEWESNGQPENNYKTTPPVLDSDGSFFLYSRLTVDKSRWQQGNVFSCSVMHEALHNHYTQKSLSLSPGK
B5: DC00066 (other)
chain 1: B3 chain 1
chain 2: QVQLVESGGGLVQPGGSLRLSCATSGFTFRNNFMSWVRQAPGKGLEWVSTISYGGESTTYAESVKGRFTISRDNAKNTLYLQMNNLKPEDTAVYYCAKATSYDSIRSGSRGQGTQVTVSSGGGGSGGGGSGGGGSEVQLVESGGGLVQTGGSLRLSCAASGGTFSRDAMAWFRQVPGKEREFVALISWSGATTNYADSVKGRFAISRDNGKNTVYLQMNRLKPADTAIYYCAADRRPMGSRSYFEPTEYDDWGQGTQVTVSSGGGGSGGGGSGGGGSQVQLVESGGGLVQAGGSLTLSCAAPGRTFGTDVVGWFRQAPGKEREFVASISRSGDGIYYDDSVKGRFTISRNNAWNTVNLQMNSLKVEDTAVYYCAAGDGWSTYDYWGQGTQVTVSSGGGGSGGGGSGGGGSDKTHTCPPCPAPEAAGGPSVFLFPPKPKDTLMISRTPEVTCVVVDVSHEDPEVKFNWYVDGVEVHNAKTKPREEQYNSTYRVVSVLTVLHQDWLNGKEYKCKVSNKALGAPIEKTISKAKGQPREPQVYTLPPSRDELTKNQVSLTCLVKGFYPSDIAVEWESNGQPENNYKTTPPVLDSDGSFFLYSRLTVDKSRWQQGNVFSCSVMHEALHNHYTQKSLSLSPGK

Target: T1, human IL-2 receptor (IL-2Rα/IL-2Rβ/γc)
Assay: cell-based or functional assay

| Binder | EC50 (nM) pSTAT5, NK, human PBMCs [nM] | EC50 (nM) pSTAT5, Treg, human PBMCs | Fold Max signal (% pSTAT5+) Treg/NK [fold] | Max signal (% pSTAT5+), NK [% pSTAT5+] | Max signal (% pSTAT5+), Treg [% pSTAT5+] | fold EC50 NK/Treg [fold] |
| --- | --- | --- | --- | --- | --- | --- |
| B1 | 0.0401 | 0.252 pM | 6 | 14 | 86 | 159 |
| B2 | 0.165 | 0.00427 nM | 9 | 5 | 44 | 39 |
| B3 | 0.0307 | < 0.1 pM | 4 | 22 | 93 | > 307 |
| B4 | 0.186 | < 0.1 pM | 2 | 38 | 94 | > 1860 |
| B5 | 0.178 | < 0.1 pM | 4 | 27 | 96 | > 1780 |
